# Experimental data from the DeepSol protein solubility set.
# Assay: soluble on expression in E. coli; label from the status in PepcDB or PDB records
row,Sequence,soluble on expression in E. coli
1,MRGSHHHHHHGSSQVADKDDPTNKFYQSVIQLGNGFLDVFTSFGGLVAEAFGFKSDPKKSDVKTYFTTVAAKLEKTKTDLNSLPKEKSDISSTTGKPDSTGSVGTAVEGAIKEVSELLDKLVKAVKTAEGASSGTAAIGEVVADADAAKVADKASVKGIAKGIKEIVEAAGGSEKLKAVAAAKGENNKGAGKLFGKAGAAAHGDSEAASKAAGAVSAVSGEQILSAIVTAADAAEQDGKKPEEAKNPIAAAIGDKDGGAEFGQDEMKKDDQIAAAIALRGMAKDGKFAVKDGEKEKAEGAIKGAAESAVRKVLGAITGLIGDAVSSGLRKVGDSVKAASKETPPALNK,soluble
2,MGSDKIHHHHHHMKVVFVSYEVFPFAKVGGLADVAGTLPKYLKKHGVDVTIVMPKHRIVEKNAEKFGYEIKKVAESLSVSHVKTDQKFDIYESVLPGSDVKTYFVANDYYFSAEDVYAGPDLGEQAIFFCAATLDLVKHLDLKPDIVHVNDWQTALIPVYLKTVYRDDPYFSRTATVLTIHNLGYQGVFDPKYLSFAGLPDYVYTIDGLEFYGQLNFLKGGIVFSDVINTVSPTYAEEIQTEEYGEKLDGVLRMRSKDLYGILNGIDYELYNPATDRYIYVNYDVNRLELKWENKVKLQEELGLPVNKETAVAGLISRLVPQKGLDLLVDVMDYLTLFDLQIVVLGTGDEQYENAFRKFQERYPDKVSANIKFDVELAQKIYAGADIFLMPSRYEPCGLGQMFSMRYGTIPVVRYTGGLADTVKEYDPQSMEGTGFGFKKYDSAHLLKAVSKALHFYYREKDHWRRIMTNAMNTDLSWDRSAKEYVDLYKKALAKVGR,not soluble
3,MSLAVEKITMPKLGESVTEGTISSWLVKPGDTVEKYDAIAEVLTDKVTAEIPSSFSGTIKEILAEEDETLEVGEVICTIETADAGSSEPVAEVEETETKAPEKQETKQVKLADAPASGRFSPAVLRIAGENNIDLSTVEGTGKGGRITRKDLLQVIENGPVAKREEMKSAPQEKAAMPTPPVRSAAGDKEIPINGVRKAIAKHMSVSKQEIPHAWMMVEVDATGLVRYRNAVKDSFKKEEGYSLTYFAFFIKAVAQALKEFPQLNSTWAGDKIIEHANINISIAIAAGDLLYVPVIKNADEKSIKGIAREISELAGKARNGKLSQADMEGGTFTVNSTGSFGSVQSMGIINHPQAAILQVESIVKRPVIIDDMIAVRDMVNLCLSIDHRILDGLLAGKFLQAIKANVEKISKENTALYEGHHHHHH,soluble
4,MNEVKLSKRLEEVVREIPVGSTVADIGSDHAYLPCYTIINNIATKAVAGEVVDGPFRSAQATVAESGLQDKVDVRKGNGLAVIAPGEVDVITVAGMGGALIRDILESGKEKLEGVTRLILQPNIAAHHIREWFIENGWELIHEKIVKEDGKIYEILVGERGNVAAPYSENKQAELFMGPFLITEKSEAFVEKWEGELKNFQNILKQLERAADSEETKAKRGEVEAKMKMIGEVLS,not soluble
5,MGSDKIHHHHHHMDQQKKIQILKDLVNIDSTNGHEEQVANYLQKLLAEHGIESEKVQYDLDRASLVSEIGSSNEKVLAFSGHMDVVDAGDVSKWKFPPFEATEHEGKLYGRGATDMKSGLAAMVIAMIELHEEKQKLNGKIRLLATVGEEIGELGAEQLTQKGYADDLDGLIIGEPSGHRIVYAHKGSINYTVKSTGKNAHSSMPEFGVNAIDNLLLFYNEVEKFVKSIDATNEILGDFIHNVTVIDGGNQVNSIPEKAQLQGNIRSIPEMDNETVKQVLVKIINKLNKQENVNLELIFDYDKQPVFSDKNSDLVHIAKSVASDIVKEEIPLLGISGTTDAAEFTKAKKEFPVIIFGPGNETPHQVNENVSIGNYLEMVDVYKRIATEFLS,not soluble
6,MGSTKSRPLRDANGTPKFRHESIACVFRVHPQQGVDVLTVIRSRPPYADMSALPSGALETNEMLKDACLRHLSLSGVHPSMVSHIEQLDTRSAIDRDPYDRTIATAHLCLIPWDIDPSVTNGSFTPLVDLDELAFDHKNIIEQGLYRLRAKLSYSNIGFALAPRLFTISDLAKTYSHVLTYNVSPTNLQRILTRRNQLQPTTARAIGSGRPARLFTFTTDRLEITDPFATLKPTESRKCKS,not soluble
7,MSLLACCAIYSPVRCAFPYTETERRFTCKRRIFRIILTLCGRENMKIRALLVAMSVATVLTGCQNMDSNGLLSSGAEAFQAYSLSDAQVKTLSDQACQEMDSKATIAPANSEYAKRLTTIANALGNNINGQPVNYKVYMAKDVNAFAMANGCIRVYSGLMDMMTDNEVEAVIGHEMGHVALGHVKKGMQVALGTNAVRVAAASAGGIVGSLSQSQLGNLGEKLVNSQFSQRQEAEADDYSYDLLRQRGISPAGLATSFEKLAKLEEGRQSSMFDDHPASAERAQHIRDRMSADGIKEGGSHHHHHH,soluble
8,MAHHHHHHMGTLEAQTQGPGSMALNSAVILAGCGHMDGSEIREAVLVMLELDRHNVNFKCFAPNKNQKQVVDHKKKESVGEVRNILVESARIARGSVYDIEQIRVEEFDMLVIPGGYGVAKNFSNLFDEDKENDYILPEFKNAVREFYNAKKPIGAVCISPAVVVALLKDIAKVKVTIGEDSNGLIDKMGGVHVDCPTIKSVKDDVNRIFSCSAYMRNDSLYNVYLGIQDMISSMVNYLKSK,soluble
9,MGSDKIHHHHHHMQRARAEQRGRDLVIHLDRPLNQDHLETVSGGQGEFYVDFEVADPRKASVQQRRLFFALLHDIETYFVVPSEFLKSMFYTQYEFYTAGKSISLSDATESSVSDANTLLDLVIDFMFEWRVPFKKGYELLPKEEQYFIYQCCRHRVCIVCGEHADIHHVDVVGRTNRNKIDHSQRHVMALCRAHHSEIESIGSAKFAAKYHVPVTGIKLKIEDLQKLGIRGNYGGD,not soluble
10,MLVAGAGALCLTLSGCAGAGSLGASDQTITIAMVSNSQMQDAQKLASQFEEENPDIDLKFVTLSENQARAKITASTATGGGEFDVVMISNYETPQWAKYGWLKNLSEYAEATEGYDEADFIPTLRESLSYEGNMYSVPFYGESSFLMYRKDLFEQAGITLSEKPTWTEVATAAKQLDSEDMAGICLRGKPGWGELLAPLDTVINTFGGRWFDEDWNAQLTSPEVERAVQFYVDLVREYGEPGAATSGFGECATQLAQGQVAMWYDSTSAVSTLEDPASSAVVGKIGYAPAPIEVKDNSGWLYSWSLGIPESSENPDAAWKFISWMTDKQYIRTVGEDLGWERVPPGSRLSTYEIPEYKEASAAYGPLTLEAIEDATPNAPTVQPVPYTGVQFLAIPEFQDLGTRVSQQISAAIAGQQTVPEALAQAQQYAEVVGATYREDR,not soluble
11,MGSDKIHHHHHHMMVNESADQLYSFALLDEDAKREIRRSLLKAVALPGHLIPFASRDLPIARGWGTGGLQITLSIITPDDTLKVIDQGDDESVNAVNLRRLIHRTTGVATTTDTAAASLIQTRHRIPEEPLRADQILVLQVPMADPLRWVEPSLERAITMHGETDYGKMWVYLYESVVRAGDLRIASQYPVIVNHRYMMDTTPIPRWDVPKLHMAETLYLFGAGREKRIYAVPPHTPVEPLQFEDYPFRTEYRPGQRCARCGAENTFLTSHFVADANGGRWEMTCSDVAFCAKRQGEQRDR,not soluble
12,MSLRLKTILLTTMATGSFLCEPVAAMCIEPPATPDMGWFLKKKKKSNPQDSIKVKNEYEKLTGSDSVVRRGMFNVYQKKNDYYFEIPSTLLERDMLVVNKLQRVPAELNEAGVNRGTNYENQMIRFELDKSANKLLIRQSRPLPISPSEDAISQSVKDNYISPLIAGFKVEAYNNDSTSILIKVNDIYDGTETSINNVFTNINLGTSAIKNLSRILSIKSFDNNVVATSELTTRVTEGTTTIYVTVEVSSSILLLPEVPMTGRLDNPRVGYFTNPLTNFSDGQQRVNKKQFITRWRLEPRPEDRAAYLRGELVEPRKPIVFYIENSTPYRWRKYIKQGIEDWQVAFERAGFKNAIIAKDITEDMEVDMDDVNYSVLTYAASTKANAMGPSILDPRSGEILEADIMWWHNVLSMLQEWITVQTGVVRPEARGVALPDSLMGDAMRFVACHEVGHSLGLRHNMMGSWAFPTDSLRSKTFTDRMNSTSSSIMDYARFNYVAQPGDGIKALSPHIGPYDMFAIEYGYRWYGKQTPEEEKELLQDFLAKHTDRLYKYSEAQDEGHHHHHH,soluble
13,MTHHHHHHAMGPAAGQAYDAGNLDVASSPVKPTLSITKKTLTAAEAPNAKVTMELSVEGAADKYAATGLHIQFDPKLKLIPDEDGALATAGRAARLLELKKAEADTDNSFFTATGSSTNNGKDGVLWSFVLQVPADAQPGDKYDVQVAYQSRTTNEDLFTNVKKDEEGLLMQAWTFTQGIEQGYIQVESTTSLE,soluble
14,MSLVKLKNLTLYLWAVFVVGCTSVPEVSTQAQNPANNKTVSLAELNWQELSLPADINFEFNEKSQVLLDNNSTGPVASFVIPTDRGPVDMVLTSHVGKELTLYEPNVLVTNSKGGVFYHIKSNEFKYIPARLLDGDRVQKQFTIVPQIGADQVNVLIYTTSEDLKGSTTVIHPAKAFAIGTGTQPPMIPDLTAVHSEYGQLNLTVTAVSLTNRTPIRPAIDYVPEIEAKSAYYLNSIQNSVEQGDIDHAMTLVSEAEKLGIPSARATFINAVQSRNEHKEGHHHHHH,soluble
15,MKTRLNKTSLNQALLPTSTAGSLPKPLWLAEPETLWSPWKLQGEELITGKHDALRLSLQDQQLAGIDIVSDGEQTRQHFVTTFIEHLNGVDFSKRKIVKIRDRYDASVPTVVGPVSRQKSVFVEDAKFLRKQTTQPIKWALPGPMTMIDTLYDDHYKSREKLAWEFAKILNEEAKELEAAGVDIIQFDEPAFNVFFDEVNDWGIACLERAIEGLKCETAVHICYGYGIKANTDWKKTLGSEWRQYEEVFPKLQKSNIDIISLECHNSHVPMELLELIRGKKVMVGAIDVATDTIETAEEVADTLRKALKFVDADKLYPCTNCGMTPLSHQVTRGKLNALSAGAEIVRKELLALR,soluble
16,MDYFNIFAYGELMKDEILFELINRVPEKNLGKIYNFEKFFDEKIGYYGIKPKENSSISGIILFNINSTELEIFDDYEDEGTYYSKNKTICYDLNGKGYESYVYVRLELEHHHHHH,not soluble
17,MVQIIFDSKTGNVQRFVNKTGFQQIRKVDEMDHVDTPFVLVTYTTNFGQVPASTQSFLEKYAHLLLGVAASGNKVWGDNFAKSADTISRQYQVPILHKFELSGTSKDVELFTQEVERVVTKSSAKMDPVK,soluble
18,MAHHHHHHMNIFKYYNIYLPLSVLGFVHIEVKSNNDVLNNSLSSISFNNYIFGRILSTNESADVVVEKPMEEKLNNTNENIDETHEESDPSNSTEETVKKCISNILDMTCDSRGHALILANNILRSQNVNEEVIILNEHDLLSQFLNGDVSNIFSDNKSIFKDLLDKDICSTYEVNFDQNSKCTLLTNKNDLQISEDILLLGNESEETNKLLDLWKRVMKNEESKLYLLKRNLYQQHLKLRNRSRLSHDKLNNILNECNVLVKKYNNNYDKTINNIFKEWSTVTPHNIFEFKLFIKACRLTWRKSIKNLHAEYTELLKRSFN,not soluble
19,MSLNDTFVVVDLETTGHSVKKGGRIIQIGMTFIKKRQIVDHFESFVNPGQLIDRQIQQLTHISQKDVQNAPYFEEIAPLLQNLLQNTVIIAHNVNFDYPYLNDEFERTGFPLLKSAAIDTVQLAQIMFPTAPGYRLLDLTTYLNITLKNAHRANADAHATALLFLKFWKKLEELPDITLKQLQQGDWPLLRQTQQFLKLVHSKNEGHHHHHH,not soluble
20,MKFSSLLQDTAAIDVFIKILTSVSKLSKKRCCVKIEKNALNFICCSGLHDGGSWFSLSIPYSSQIFRKFDMVGMNPRNEEQNLIYFELEIDSLVRVLPGGHCYLKLKLSKSQKDEPMLSVEVRNPEADIVSHQIPITIILSKYWNSYSRPSIGHRKMSISMPPPKMMSRFLHVFKNMNTRVVKLTASTSGDLRISTKIETGEIDVSFSDLQTNPSETDSQEDTAKVQLMIRNISPLFQSFANTRTRAKMNIISNRMAEFNFHNEDCVLSYIVGNVSD,not soluble
